According to publication PMC5819950, “3.3-Å resolution cryo-EM structure of human ribonucleotide reductase with substrate and allosteric regulators bound” (eLife, 2018):

B1: human ribonucleotide reductase large subunit (alpha) (enzyme, UniProt P23921 1-792, looked up)
chain: MHVIKRDGRQERVMFDKITSRIQKLCYGLNMDFVDPAQITMKVIQGLYSGVTTVELDTLAAETAATLTTKHPDYAILAARIAVSNLHKETKKVFSDVMEDLYNYINPHNGKHSPMVAKSTLDIVLANKDRLNSAIIYDRDFSYNYFGFKTLERSYLLKINGKVAERPQHMLMRVSVGIHKEDIDAAIETYNLLSERWFTHASPTLFNAGTNRPQLSSCFLLSMKDDSIEGIYDTLKQCALISKSAGGIGVAVSCIRATGSYIAGTNGNSNGLVPMLRVYNNTARYVDQGGNKRPGAFAIYLEPWHLDIFEFLDLKKNTGKEEQRARDLFFALWIPDLFMKRVETNQDWSLMCPNECPGLDEVWGEEFEKLYASYEKQGRVRKVVKAQQLWYAIIESQTETGTPYMLYKDSCNRKSNQQNLGTIKCSNLCTEIVEYTSKDEVAVCNLASLALNMYVTSEHTYDFKKLAEVTKVVVRNLNKIIDINYYPVPEACLSNKRHRPIGIGVQGLADAFILMRYPFESAEAQLLNKQIFETIYYGALEASCDLAKEQGPYETYEGSPVSKGILQYDMWNVTPTDLWDWKVLKEKIAKYGIRNSLLIAPMPTASTAQILGNNESIEPYTSNIYTRRVLSGEFQIVNPHLLKDLTERGLWHEEMKNQIIACNGSIQSIPEIPDDLKQLYKTVWEISQKTVLKMAAERGAFIDQSQSLNIHIAEPNYGKLTSMHFYGWKQGLKTGMYYLRTRPAANPIQFTLNKEKLKDKEKVSKEEEEKERNTAAMVCSLENRDECLMCGS
notes: human ribonucleotide reductase α (large) subunit, 792 residues; the final cryo-EM model holds two residues of tag and residues 1-743, and the 49-residue C-terminal tail is disordered; The number of copies depends on the nucleotides: α2 with TTP, α6 ring (three α2) with dATP, ATP, dATP + ATP, ClFDP or ClFTP; also called human α

How the values were obtained:
[1] = target: the molecule itself; assay: negative stain EM; α with 0.1 mM TTP, same buffer; 2D class averages
[2] = target: the molecule itself; assay: cryo-EM structure; 14 μM α with 0.05 mM dATP, 3 mM ATP, 1 mM CDP in 50 mM HEPES pH 7.6, 15 mM MgCl2, 1 mM EDTA, 5 mM DTT, 50 mM KCl, incubated at 37°C; single-particle map at 3.3 Å
[3] = target: B1; assay: negative stain EM; 3 μM α and 3 μM β with 3 mM ATP, 0.05 mM dATP, 1 mM CDP in 50 mM HEPES pH 7.6, 15 mM MgCl2, 50 mM KCl, 5 mM DTT, 37°C for 2 min, diluted ~20 fold; ISAC averages; details: both partners purified

B1
stoichiometry N [1]: 2
stoichiometry N [2]: 6

B2: human ribonucleotide reductase β subunit (enzyme)
chain: TKAAAPGVEDEPLLRENPRRFVIFPIEYHDIWQMYKKAEASFWTAEEVDLSKDIQHWESLKPEERYFISHVLAFFAASDGIVNENLVERFSQEVQITEARCFYGFQIAMENIHSEMYSLLIDTYIKDPKEREFLFNAIETMPCVKKKADWALRWIGDKEATYGERVVAFAAVEGIFFSGSFASIFWLKKRGLMPGLTFSNELISRDEGLHCDFACLMFKHLVHKPSEERVREIIINAVRIEQEFLTEALPVKLIGMNCTLMKQYIEFVADRLMLELGFSKVFRVENPFDFMENISLEGKTNFFEKRVGEYQRMGVMSSPTENSFTLDADF
notes: human ribonucleotide reductase β (small) subunit, homodimer β2 with the diferric-tyrosyl radical cofactor; also called β2; human β
stoichiometry N [3]: 1 β2 per α6 ring
